The values below are quoted from earlier work in article PMC8688582.

By Kd is commonly meant a measure of binding affinity in units of concentration.

This data set concerns the target CD25 (Homo sapiens) (UniProt P01589). The experiment in a line: ITC. For orientation: In ITC the heat of successive injections is recorded.
Chain of UniProt P01589 (P01589 22-240): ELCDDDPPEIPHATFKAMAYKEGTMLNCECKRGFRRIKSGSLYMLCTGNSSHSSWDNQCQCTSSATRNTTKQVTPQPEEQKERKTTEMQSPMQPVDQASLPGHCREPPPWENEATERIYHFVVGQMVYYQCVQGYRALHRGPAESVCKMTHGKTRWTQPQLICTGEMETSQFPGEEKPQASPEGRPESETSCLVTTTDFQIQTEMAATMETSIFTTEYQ

Take IL-2 (from UniProt P60568): the Kd was 10 nM.
